B1: hilA -35+6 (dsDNA)
DNA 1: GATCCGCATTTACACCCCAAAAAAATGCAGTAAGATAGCTACAAA
DNA 2: AGCTTTTGTAGCTATCTTACTGCATTTTTTTGGGGTGTAAATGCG
B2: hilD -37+6 (dsDNA)
DNA 1: GATCCGCATTTACAACTCAGATTTTTTCAGTAGGATACCAGTAAGGA
DNA 2: AGCTTCCTTACTGGTATCCTACTGAAAAAATCTGAGTTGTAAATGCG

Target: 6H-SsrBc (Salmonella enterica serovar Typhimurium, UniProt Q7CQM5 138-212)
Assay: EMSA; 0-2 uM protein
Settings: protein: recombinant; 5' overhang 4 nt at both ends

Chain of 6H-SsrBc (Q7CQM5 138-212): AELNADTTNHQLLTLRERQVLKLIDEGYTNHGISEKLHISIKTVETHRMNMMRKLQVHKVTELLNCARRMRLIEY

Binder	binding result
B1	no binding
B2	binds
